Tyrosine phosphorylation (4G10 blot) of precipitated MT1-MMPmCh by recombinant GST-LIMK1 in an in vitro kinase assay, ΔDKV against WT data for one substance are collected here from PMC4847008.

This assay addresses MT1-MMPmCh ΔDKV (UniProt P50281).

As to “LIM Kinase-1 (from UniProt P53667 1-647) (natural protein)”, the tyrosine phosphorylation (4G10 blot) of precipitated MT1-MMPmCh by recombinant GST-LIMK1 in an in vitro kinase assay, ΔDKV against WT was 60 % decrease.
